According to the nanobody polyreactivity screen of Harvey et al. (2022):

Assay: yeast display, Sf9 membrane polyspecificity reagent, FACS + sequencing; frameworks hold sequencing errors
How it was run: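 Galactose induction of a Saccharomyces cerevisiae BJ5465 synthetic nanobody display library ran 36–48 hours. The cells were then stained for 1 hour at 4 °C with 10% biotinylated, detergent-solubilized Sf9 membrane reagent, pulled down on streptavidin microbeads and FACS-sorted into low and high (top ~1%) gates on expression and reagent-binding fluorescence. Labels for polyreactivity follow the gate of origin.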

| Sequence | polyreactivity (PSR sort gate) |
| --- | --- |
| QVQLVESGGGLVQAGGSLRLSCAASGRIFGVYAMGWYRQAPGKERELVASISDGTITNYADSVKGRFTISRDNAKNTVYLQMNSLKPEDTAVYYCAATWSFVYGDYFEYDYWGQGTQVTVSS | low polyreactivity |
| QVQLVESGGGLVQAGGSLRLSCAASGSIFVGNVMGWYRQAPGKERELVAAISRTGGTYYADSVKGRFTISRDNAKNTVYLQMNSLKPEDTAVYYCNKVSLRQSRMYYWGQGTQVTVSS | high polyreactivity |
| QVQLVESGGGLVQAGGSLRLSCAASGRTFYLYTMGWYRQAPWKERELVAGISWSGGSTYADSVKGRFTLSRDNAKNTVYLQMNSLKPEDTAVYYFNADDVRGLFYYWGQGTQVTVSS | low polyreactivity |
| QVQLVESGGGLVQAGGSLRLSCAASGIAYTYNAMGRYRQAPGKERELVASISRTGGSTRYADSVKGRFTISRDNAKYTVYLQMNSLKPEDTAVYYCAALSWRYVKYRFDYWGQGTQVTVSS | high polyreactivity |
| QVQLVESGGGLVQAGGSLRLSCAASGSTFGIYDMGWYRQAPGKERELVAAITSGGDTNYADSVKGRFTISRDNAKNTVYFQKNSLKPEDTAVYYCNARDGGQGNYSARYDYWGQGTQVTVSS | low polyreactivity |
| QVQLVESGGGLVQAGGSLRLSCAASGRTLRHYTMGWYRQAPGKERELVAAITSRGSSTYYAESVKGRFTISRDNAKNTVYLQMNSLTPEDTAVYYCNATYVRLTQYFPRLYYPYYFWGQGTQVTVSS | low polyreactivity |
| QVQLVESGGGLVQAGGSLRLSCAASGSTFVYNAMGWYRQAPGKERELVAGIRSSGDRTYYADSVKGRFTISRDNGKNTVYLQMNSLKPEDTAVYYCAAYLGRDPWFSRQGYGYWGQGTQVTVSS | high polyreactivity |
| QVQLVESGGGLVQAGGSLRLSCAASGRIFSEYALGWYRQAPGKERELVAAITRRGGSTYYADSVKGRFTISRYNAKNTVYLQMNSLKPEDTAVYYCNALLTGGYQDSYPADYWGQGTQVTVSS | high polyreactivity |
| QVQLVESGGGLVQAGGSLRLSCAASGSTFSAYGMGWYRQAPGKERELVARISWNGGSTYYADSVKGRFTISRDNAKNTVYLQMNSLKPEDTAVYYCNTELVGHPDWLSWRYYYWGQGTQVTVSS | low polyreactivity |
| QVQLVESGGGLVQAGGSLRLSCAASGSTFPRYAMGWYRQAPGKERELVAAISSGGSTYYADSVKGRFTISRDNAKNTVYLQMNSLKPEDTAVYYCNRRPGARYNYWGQGTQVTVSS | high polyreactivity |
| QVQLVDSGGGLVQAGGRLRLSCAASGSTFIYNAMGWYRQAPGKERELVASISTSGGSTYYADSVKGRFTISRDNAKNTVYLQMNSLKPEDTAVYYCAKRYFFKYGYWGQGTQVTVSS | high polyreactivity |
| QVQLVESGGGLVQAGGSLRLSCGASGFTFRSYAMGWYRQAPGKEGELVATISSGGTTKYADSVQGRFTISRDNANNTVYLQMNSLKPEDTAVYYCAARTSVLGRNFNYWGQGTQVTVSS | high polyreactivity |
| QVQLVESGGGLVQAGGSLRLSCAASGFIFRTYAMGWYRQAPGKERELVATITGDGSTNYADSVKGRFTISRDHAKNTVYLQMNSLKPEDTAVYYGSRDDRLAGDYWGQGSQVTVSS | low polyreactivity |
| QVQLQESGGGLVQAGGSLRMSCAASGNIFDADIMGWYRQAPGKERELVASITDGRRTNYADSVKGRYTISRDSEKNTVYMQMNSLIPVDTAVYYCADIAYPVVPTYFDYDSDYFHWGQGTQVTVSS | high polyreactivity |
| QVQLEESGGRLVQAGGSLRLRCAASGLMYTRYVMGWYRQAPGKERELVAVISSGGSTYYADSVKGRFTISRDNAKNTVYLQMNSLIAEDTAVYYCAAYLRSSHVTYDYWGQGTQVTVSS | high polyreactivity |
| QVQIVESGGGLVQAGGSLPLSCAASGSIFDYYVMGWYRQAPGKERELVAAINWSGDGTNYADSVKGRFTISRDNAKNTVYLQMNSLKPEDTAVYYCNADWTSDGFGTRLDYWGQGTQVTVSS | low polyreactivity |
| QVHLVESGGGLVQAGGSLRLSCAASGFTFRYNAMGWYRQAPGKERELVAAISWSGGSTYYADSVKGRFTISRDNAKNTVYLQMNSLKPEDTAVYYCNVGWGRVYKSRYDYWGQGTQVTVSS | high polyreactivity |
| QVQLVESGGGLVQAGGSLRLSCAASGLIIASYAMGWYRQAPGKERELVAAINTGGSTYYADSVKGRFTISRDNAKNTVYLQMNSLKPEDTAVYYCAARYTGLSYSRYGYWGQGTQVTVSS | high polyreactivity |
| QVQLVESGGGLVQAGGSLRLSCAASGSIIHVNAMGCYRQAPGKERELVAGISDGGSTYYADSVKGRFTISRDNAKYTVYLQMNSLKPEDTAVYYCAAESEQWYSYVLSYDWEYDYWGQGTQVTVSS | low polyreactivity |
| QVQLVESGGGLVQAGGSLRLSCAASGRIFGYYAMGWYRQAPGKERELVAAISSGGNTNYADSVKGRFTISRDNAKNTVYLQMYSLKPEDTAVFYCAAYHFSFGWIRVDYWGQGTQVTVSS | high polyreactivity |

| Sequence | polyreactivity (PSR sort gate) |
| --- | --- |
| QVQLVESGGGLVQAGGSLRLSCAASGRIFVYYAMGWYRQAPGKERELVATITSSDITNDADSVKGRFTISCDNAKNTVYLQMNSLKPEDTAVYYCARDYYVYSSGHVPLDYWGQGTQVTVSS | low polyreactivity |
| QVQLVESGGGLVQAGGSLRLSCAASGSISSSYAMGWYRQAPGKERELVAAIDGSDGTTYYADSVKGRYTISRDNAKNTVYLQMNSLKPEDTAFYYCAAEPLGYHAGATRYDYWGQGTQVTVSS | high polyreactivity |
| QVQLVDSGGGLVQAGGSLRLSCAASGSILGAKDMGWFRQAPGKERELVATITWNGGGTSYADSVKGRFTISRDNAKNTVYLQMNSLKAEDTAVYYFNALGRDSQALYRYRLVGEFGYWGQGSQVTVSS | low polyreactivity |
| QVQLVESGGRLVQAGGSLRLSCAASGSTFQYNAMGWYRQAPGKERELVAAISLSGGSTYYADSVKGRFTISRDNAKNRVYLQMNSLKPEDTAVYYCAARQWYRYKVRFDYWGQGTQVTVSS | high polyreactivity |
| QVQLVESGGGLVQAGGSLRLSCAASGSTLFLYAMGWYRQAPGKERELVAAITWSGGSTYYADSVKGRFTISRDNAKKTVYLQMNSLKPEDTAVYYCAKYGRYFWNSGVDYWGQGTQVTVSS | high polyreactivity |
| QVQLVESGGGLVQAGGSLRLSCAASRFNFDRNVSGWYRQEPGKERELVAAITGSGGRTYYADSVKGRFKISRDNAKNTVYLQMNSLKPEDTAVYYCARAFGQRRYVYWGQGTQVTVSS | high polyreactivity |
| QVQLVESGGGLVQAGGSLRLSCAASGYTVGTYDMGWYRQAPGKERELVAAISIGGSTNYADSVKGRFTMSRDNAKNTVYLQMNSLKPDATAVSYCASEVNVGTLLLSVIVEDGDYWGQGTQVTVSS | low polyreactivity |
| QVQLVESGGGLVQAGGSLRLSCAASGRIFTGNAMGWYRQAPGKERELVATITRRGGSTYYADSVKGRFTISRDHAKNTVYLQMNSLKPEDTAVYYCDANRLFSYDKYGYWGQGTQVTVSS | high polyreactivity |
| QVQLVESGGGLVQAGGILRLGCAASGSTFAWNAMGWYRPAPGKERELVATISRSGSTNYADSVKGRFTISRDNAKNTVYLQMNCLKPEVTAVYYCARDKRYYRQYYYHTRYYYWGQGTQVTVSS | high polyreactivity |
| QVQLVESGGGLVHAGGSLSLSCAASGSIFPTNVMGWYRQAPGKERELVAAISANDGSTYYADSVKGRFTISRDNAKNTVYLQMNSLKPEDTAVYYCNQEGYTYRFTWYDYWGQGTQVTVSS | low polyreactivity |
| QVQLVESGGGLVQAGGSLRLSCADSGRIFRYYAMGWYRQAPGKERELVAAISGSGGSTYYADSVKGRFTISRDNSKNTVYLHMNSLKPEDTSVYYCAAAEYLYTLPYGYWGQGTQVTVSS | low polyreactivity |
| QVQLVESGGGLVQAGGSLRLSCAASGSIFGGYGMGWYRQAPGKERELVAVITKRGGSTYYADSVKGRFTISRDNAKNTVYLQMNSLKPEDTAVYYCNADYRRYPEFDYWGQGTQVTVSS | high polyreactivity |
| QVQHVESGGGLVQAGGSLRLSCAASGRIFSANAMGWYRQAPGKERELVAAISGSGGSTFYADSVKGRFTISRDNAKNTVYLQMNSLKPEDTAVYYCAARRYRSGYYSFYYWGQGTQVTVSS | high polyreactivity |
| QVQLVESGGGLVQAGGSLRLSCADSGSTFYYYTKGWYRQAPGKERELVAAISFSGGSTYYADSVKGRFTISLYNAKNTVYLQMNSLKPEDTAVYDCAAAQRVYKSWGYYWGQGSQVTVSS | low polyreactivity |
| QVQLVESGGGLVQAGGSLRLSCAASGSTLGRYTLGWYRQAPGNERELVAAIRASGTSTYYADSVKGRFTISRDNAKNTVYLQMNSLKPEDTAVYYCNALQFGTVRLDSWGQGTQVTVSS | low polyreactivity |
| QDQLVESGGGLVQAGGSLRLSCAASGSTLFYAMGWYRQAPGKERELVAAISWSGGSTRYADSVKGRFTISRDNAKNTVYLQMNSLKPEDTAVYYCNRDPDTWGYQPDWYYGAYDYWGQGTQVTVSS | low polyreactivity |
| QVQLVESGGGLVQAGGSLRLSCAASVITFGANTMGWDIQAPGKERELVATLTSSGGSTYYADSVKGRFTISRDNAKNTVYLQMNSLKPEDTAVYYCAASDLRDRGNYVYLPSEYWGLGTQVTVSS | low polyreactivity |
| QVQLVESGGGLVQAGGSLRLSCPASGLTFGGNAMGWYRQEPGKERELVAAISWSDDTTDYADSVKGRFTISRDNAKNTVYLQMNSLKPEDTAVYYCAARLPFEHVDYWGQGTQVTVSS | low polyreactivity |
| QVQLVESGGGLVQAGGSLRLSCAASGRIFIIYAMGWYRQAPGTEREFVAAITSSGGSTYYADSVKGRFTISRDNAKNTVYLQMNSLKPEDTAVYYSAADSTEYTGDASYIGYDYWGQGTQVTVSS | high polyreactivity |
| QVQHVDSRGGLVQAGGSLRLSCAASGSIVPWNDMGWYRQAPGKERQLVAAITYRGGRTYYADSVKGRFTISRDNAKNTVYLQMNSLKPEDTAVYYCATKSRRNSPRMDYWGQGTQVTVSS | high polyreactivity |
